In publication PMC7181197:
Where two headings read alike, the source gives them in different places.

What was measured:
GFP-G3BP1(ΔRG) [1] = assay: SEC
GFP-G3BP1(ΔRG) [2] = target: GFP-G3BP1(ΔRG)

- stoichiometry N (GFP-G3BP1(ΔRG) [1]): 2
- stoichiometry N (GFP-G3BP1(ΔRG) [2]): 2
Substance: GFP-G3BP1(ΔRG) (domain or fragment)
